Our source for the stoichiometry N values is paper PMC2875016.

A word on the stoichiometry N: it is the number of molecules, sites or subunits per partner or assembly.

In assay [1] the target is HpNikR mutant M5 (H74G, H75G) (Helicobacter pylori). Put plainly: crystal structure.
Assay [2] deals with HpNikR mutant M6 (C96S) (Helicobacter pylori). The assay can be described thus: crystal structure.

For “HpNikR mutant M5 (H74G, H75G) (natural protein)”, in assay [1], the stoichiometry N was determined as 4.

The substance “HpNikR mutant M6 (C96S) (natural protein)” yielded a stoichiometry N in assay [2] of 4.
